Values joined by “and” are separate entries in the source; they are usually repeats but may differ in a detail not shown here. Equal values may be shown once.

Holding throughout (type): biochemical, Escherichia coli
Substrate in series [1]: OC1OC[C@@H](O)[C@@H](O)[C@@H]1O
In words: SSM-based electrophysiology, proteoliposomes with wt FucP. The procedure: (§1) Reconstitution of purified proteins (2–20 mg/ml) was carried out with E. coli phospholipids (Avanti Polar Lipids, E. coli polar lipid extract). Preformed liposomes (0.2–2 ml, 10 mg/ml) were dissolved in 1% (w/v) n-octyl-β-D-glucoside, and the protein suspension was mixed on ice to a concentration of 0.2 mg protein/mg lipid (LPR 5).
(§2) Wt XylE, wt FucP, and the mutant proteins were reconstituted using overnight incubation in 400 mg/ml BioBeads (SM-2 Adsorbent Media, Bio-Rad) at 4 °C. After reconstitution, the samples were diluted to 2.5 mg/ml lipid concentration, frozen in liquid nitrogen, and stored at −80 °C. For wt LacY and mutant proteins, this procedure was not successful. We, therefore, applied the previously established n-octyl-β-D-glucoside dilution method (1:100) ([69]).
(§3) SSM measurements were performed as described ([20], [23]). After thawing the sample and sonication in a water bath, 30 μl of proteoliposomes (2.5 mg/ml lipid at LPR 5) was allowed to adsorb for 1 to 2 h to an octadecanethiol/phosphatidylcholine hybrid bilayer on a gold surface (the sensor).
(§4) For measurements, a single solution exchange configuration ([23]) was employed that consisted in three phases of 0.5 s duration each: Flow of nonactivating solution (NA), activating solution (A), and nonactivating solution (NA). Only the activating solution contained the sugar. When pH dependence is determined, pH of NA and A solutions during one experiment are kept constant. Between experiments using different pH values, the sensor was incubated at the new pH for 3 min to equilibrate the intraliposomal pH.
(§5) Instruments with different time resolution were used as required. […] Currents were recorded throughout the entire time and amplified with a current amplifier set to a gain of […] and a rise time of 10 ms (low time-resolution set up) or 3 ms (high time-resolution set up).
(§6) All NA solutions were buffered in 100 mM KPi at a given pH value. […] Sugar concentration jumps initiated sugar-proton symport, and charge transfer was measured by capacitive coupling. Therefore, only transient currents were recorded. […]

Substrate in series [2]: OC[C@@H]1OC(O)[C@@H](O)[C@H](O)[C@@H]1O
The description is as above. The following applies: other: pH 7.6, minor substrate, peak currents, low time-resolution set up. The procedure:
as §1, §2, §3, §4, §5, §6

Substrate in series [3]: OC[C@H]1O[C@@H](O[C@@H]2[C@@H](CO)O[C@](O)(CO)[C@H]2O)[C@H](O)[C@@H](O)[C@H]1O
In words: SSM-based electrophysiology, proteoliposomes with wt LacY. The procedure:
as §1
Wt XylE, wt FucP, and the mutant proteins were reconstituted using overnight incubation in 400 mg/ml BioBeads (SM-2 Adsorbent Media, Bio-Rad) at 4 °C. After reconstitution, the samples were diluted to 2.5 mg/ml lipid concentration, frozen in liquid nitrogen, and stored at −80 °C. For wt LacY and mutant proteins, this procedure was not successful. […]
For measurements, a single solution exchange configuration ([23]) was employed that consisted in three phases of 0.5 s duration each: Flow of nonactivating solution (NA), activating solution (A), and nonactivating solution (NA). […] When pH dependence is determined, pH of NA and A solutions during one experiment are kept constant. […]
as §5
All NA solutions were buffered in 100 mM KPi at a given pH value. […] Therefore, only transient currents were recorded. […]

The mark [4] stands for this setting: other: pH 7.6, minor substrate, peak currents, low time-resolution set up.
Where [5] appears, read: other: pH 7.6, peak currents, Hill equation.

B1: wt FucP (Escherichia coli K-12) (protein)
chain: MGNTSIQTQSYRAVDKDAGQSRSYIIPFALLCSLFFLWAVANNLNDILLPQFQQAFTLTNFQAGLIQSAFYFGYFIIPIPAGILMKKLSYKAGIITGLFLYALGAALFWPAAEIMNYTLFLVGLFIIAAGLGCLETAANPFVTVLGPESSGHFRLNLAQTFNSFGAIIAVVFGQSLILSNVPHQSQDVLDKMSPEQLSAYKHSLVLSVQTPYMIIVAIVLLVALLIMLTKFPALQSDNHSDAKQGSFSASLSRLARIRHWRWAVLAQFCYVGAQTACWSYLIRYAVEEIPGMTAGFAANYLTGTMVCFFIGRFTGTWLISRFAPHKVLAAYALIAMALCLISAFAGGHVGLIALTLCSAFMSIQYPTIFSLGIKNLGQDTKYGSSFIVMTIIGGGIVTPVMGFVSDAAGNIPTAELIPALCFAVIFIFARFRSQTATN
notes: made in house; host or cells: E. coli BL21 DE3
B1: the Km (in general, the concentration of substrate that gives half-maximal velocity) in series [1] (setting [4]) was 12.2 ± 2.8 mM; in series [2], 7.4 ± 1.3 mM. For the same protein, the K0.5 in series [1] (setting [5]) was 80 ± 40 mM.

B2: wt LacY (Escherichia coli K-12) (protein)
chain: MYYLKNTNFWMFGLFFFFYFFIMGAYFPFFPIWLHDINHISKSDTGIIFAAISLFSLLFQPLFGLLSDKLGLRKYLLWIITGMLVMFAPFFIFIFGPLLQYNILVGSIVGGIYLGFCFNAGAPAVEAFIEKVSRRSNFEFGRARMFGCVGWALCASIVGIMFTINNQFVFWLGSGCALILAVLLFFAKTDAPSSATVANAVGANHSAFSLKLALELFRQPKLWFLSLYVIGVSCTYDVFDQQFANFFTSFFATGEQGTRVFGYVTTMGELLNASIMFFAPLIINRIGGKNALLLAGTIMSVRIIGSSFATSALEVVILKTLHMFEVPFLLVGCFKYITSQFEVRFSATIYLVCFCFFKQLAMIFMSVLAGNMYESIGFQGAYLVLGLVALGFTLISVFTLSGPGPLSLLRRQVNEVA
notes: made in house; host or cells: E. coli XL1-Blue
Take B2: in series [3] (setting [4]), the Km was 2.27 ± 0.54 mM and 2.3 ± 0.6 mM. Also, the K0.5 in series [3] (setting [5]) came out at 6.94 ± 3.58 mM.

For the origin of these results see article PMC8784342, “Investigation of sugar binding kinetics of the E. coli sugar/H^+ symporter XylE using solid-supported membrane-based electrophysiology” (The Journal of Biological Chemistry, 2021).
